From patent publication US20220411536A1 (NUMAB THERAPEUTICS, published 2022)

Tests used:
[1] = target: T1, Fc-tagged human PD-L1 extracellular domain (SinoBiological, cat. 10084-H02H) (human, UniProt Q9NZQ7 19-238); assay: SPR
T1 construct: extracellular domain; also called hPD-L1; not shown: Fc tag of the bought protein

[2] = target: T1, Fc-tagged human PD-L1 extracellular …; assay: SPR, captured Fc-PD-L1 ECD, scFv analyte, kinetic
[3] = target: T1, Fc-tagged human PD-L1 extracellular …; assay: SPR, captured Fc-PD-L1 ECD, scFv analyte, steady state
[4] = target: T2, CD3e on Jurkat PD-1 NFAT reporter T cells or on T cells of human PBMCs (human, UniProt P07766 23-207); assay: cell-based or functional assay
[5] = target: T2, CD3e on Jurkat PD-1 NFAT reporter T …; assay: cell-based or functional assay; remark: listed apart in the source
[6] = target: T2, CD3e on Jurkat PD-1 NFAT reporter T …; assay: cell-based or functional assay; remark: listed apart in the source
[7] = target: T3, recombinant human IL-23R (custom-made by Trenzyme) (human, UniProt Q5VWK5 24-355); assay: SPR, immobilised IL-23R
T3 sequence (looked up): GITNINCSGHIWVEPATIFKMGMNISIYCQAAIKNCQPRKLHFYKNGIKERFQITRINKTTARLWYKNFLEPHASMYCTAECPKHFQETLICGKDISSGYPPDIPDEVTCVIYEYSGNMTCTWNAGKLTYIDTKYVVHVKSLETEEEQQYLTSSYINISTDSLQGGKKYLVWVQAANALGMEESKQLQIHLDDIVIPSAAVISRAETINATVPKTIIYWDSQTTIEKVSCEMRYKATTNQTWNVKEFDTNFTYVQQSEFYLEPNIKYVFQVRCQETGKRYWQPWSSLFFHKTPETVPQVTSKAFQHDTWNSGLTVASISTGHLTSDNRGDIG

[8] = target: T4, recombinant human Her2 ECD (SinoBiological, cat. 10004-HCCH) (human, UniProt P04626 23-652); assay: SPR, immobilised Her2 ECD
T4 construct: extracellular domain; bought protein

[9] = target: T5, human HER2 expressed on cells (SK-OV3, MCF-7, HCC1954, HCC827) (human, UniProt P04626 23-1255); assay: flow cytometry, MCF-7 cells
T5 construct: whole, on cells

[10] = target: T6, human serum albumin (human, UniProt P02768 25-609); assay: SPR, immobilised HSA, pH 5.5
T6 construct: also called HSA; human SA

[11] = target: T7, mouse serum albumin (mouse, UniProt P07724 25-608); assay: SPR, immobilised MSA, pH 5.5
T7 construct: also called MSA; mouse SA

[12] = target: T5, human HER2 expressed on cells (SK-OV3, …); assay: flow cytometry, SK-OV3 cells
[13] = target: T1, Fc-tagged human PD-L1 extracellular …; assay: SPR, captured Fc-PD-L1 ECD, kinetic
[14] = target: T1, Fc-tagged human PD-L1 extracellular …; assay: SPR, captured Fc-PD-L1 ECD, steady state
[15] = target: T8, recombinant human CD3E ECD (SinoBiological, cat. 10977-H08H) (human, UniProt P07766 23-126); assay: SPR, immobilised CD3e ECD, two-state model
T8 construct: extracellular domain; bought protein; also called CD3s

[16] = target: T5, human HER2 expressed on cells (SK-OV3, …); assay: flow cytometry, SK-OV3 cells, no competitor
[17] = target: T5, human HER2 expressed on cells (SK-OV3, …); assay: flow cytometry, IFNy-stimulated HCC827 cells
[18] = target: T5, human HER2 expressed on cells (SK-OV3, …); assay: flow cytometry, IFNy-stimulated HCC1954 cells
[19] = target: T8, recombinant human CD3E ECD …; assay: SPR, immobilised CD3e ECD, two-state model (ka1)
[20] = target: T8, recombinant human CD3E ECD …; assay: SPR, immobilised CD3e ECD, two-state model (kd1)
[21] = target: T5, human HER2 expressed on cells (SK-OV3, …); assay: flow cytometry, SK-OV3 cells, competitor 50 nM pertuzumab
[22] = target: T9, human PD-L1 expressed on cells (CHO-PD-L1, HCC1954, HCC827) (human, UniProt Q9NZQ7 19-290); assay: flow cytometry, inhibition of biotinylated PD-1 binding to HCC827 cells
T9 construct: whole, on cells; also called hPD-L1; PD-L1 expressing cells

[23] = target: T9, human PD-L1 expressed on cells …; assay: flow cytometry, inhibition of biotinylated PD-1 binding to HCC1954 cells
[24] = target: T1, Fc-tagged human PD-L1 extracellular …; assay: SPR, captured Fc-PD-L1 ECD, kinetic; kinetic analysis; the patent holds the steady state KD (3.47E-07 M) for the valid one

B1: PRO1434 (scFv, V domains shown)
VH: QVQLQESGPGLVKPSETLSLTCKVSGFSFSSGYDMCWIRQPPGKGLEWIGCVVAGSVDITYYASWAKGRVTISVDSSKNQFSLKLSSVTAADTAVYYCARKDAYSDAFNLWGQGTLVTVSS
VL: DIQMTQSPSSLSASVGDRVTITCQASQSINDYLAWYQQKPGKAPKLLIYKASTLASGVPSRFSGSGSGTDFTLTISSLQPEDFATYYCQAAYIITDIDNVFGTGTKVTVLG
notes: also called 33-03-G02 VL-Q108A/G109A
- fold reduction of affinity vs PRO830 [1]: 6500 fold
- Kd [2]: 492 nM
- koff [2]: 0.535 s⁻¹
- kon [2]: 1.09e+06 M⁻¹ s⁻¹
- Kd [3]: 487 nM

B2: PRO1543 (multispecific antibody)
chain 1: not shown
chain 2: DIQMTQSPSSLSASVGDRVTITCQASQSINDYLAWYQQKPGKAPKLLIYKASTLASGVPSRFSGSGSGTDFTLTISSLQPEDFATYYCQAAYIITDIDNVFGTGTKVTVLGGGGGSGGGGSGGGGSGGGGSQVQLQESGPGLVKPSETLSLTCKVSGFSFSSGYDMCWIRQPPGKGLEWIGCVVAGSVDITYYASWAKGRVTISVDSSKNQFSLKLSSVTAADTAVYYCARKDAYSDAFNLWGQGTLVTVSSGGGGSGGGGSEVQLVESGGGLVQPGGSLRLSCAASGFSLSSYDMSWVRQAPGKGLAWIGASYASGPTYYASWAKGRFTISRDNSKNTVYLQMNSLRAEDTATYFCARGGWTGTSHSNIWGQGTLVTVSSGGGSGGGSEVQLVESGGGLVQPGGSLRLSCAASGFSFSSSYWICWVRQAPGKCLEWVGCVFTGDGTTYYASWAKGRFTISRDNSKNTVYLQMNSLRAEDTATYFCARPVSVYYYGMDLWGQGTLVTVSS
notes: also called trastuzumab-based MATCH4
- IC50, NFAT reporter, CHO-PD-L1 (A2 clone) cells [4]: 29.2 nM
- IC50, NFAT reporter, HCC1954 cells [4]: 402 pM
- IC50, NFAT reporter, HCC1954 cells, + nivolumab [4]: 125 pM
- rel. max. activation vs PRO1497, NFAT reporter, HCC1954 cells [4]: 102%
- rel. max. activation vs PRO1497 on HCC1954, NFAT reporter, CHO-PD-L1 (A2 clone) cells [4]: 62%
- T cell activation IC50, PBMC with HCC827 cells [5]: 136 pM
- T cell activation IC50, PBMC with HCC1954 cells [5]: 49 pM
- target cell killing IC50, 16 h, HCC1954 cells [6]: 0.23 pM
- target cell killing IC50, 16 h, MCF-7 cells [6]: 3.11 pM
- binding result [7]: no binding (tested: 90 nM highest concentration)
- Kd [8]: 0.406 nM
- koff [8]: 6.26e-05 s⁻¹
- kon [8]: 154000 M⁻¹ s⁻¹
- EC50 [9]: 28.6 nM
- Kd [10]: 0.81 nM
- koff [10]: 0.000118 s⁻¹
- kon [10]: 145000 M⁻¹ s⁻¹
- Kd [11]: 19.5 nM
- koff [11]: 0.00117 s⁻¹
- kon [11]: 60200 M⁻¹ s⁻¹
- EC50 [12]: 3.32 nM
- koff [13]: 0.000367 s⁻¹
- kon [13]: 17600 M⁻¹ s⁻¹
- Kd [14]: 347 nM
- KD1 [15]: 28.5 nM
- Kd [15]: 15.7 nM
- kd2 [15]: 0.00503 s⁻¹
- EC50 [16]: 4.09 nM
- EC50 [17]: 3.9 nM
- EC50 [18]: 27.8 nM
- kon [19]: 190000 M⁻¹ s⁻¹
- koff [20]: 0.00542 s⁻¹
- EC50 [21]: 4.16 nM
- IC50 [22]: 59.2 µg/mL
- IC50 [23]: 0.601 µg/mL
- Kd [24]: 20.9 nM
